Positions count from the first letter of the chain named. Each block holds one molecule with its values, some of them ahead of it.
What was measured:
[1] = molecular target: insulin/IGF-I hybrid receptor isoform A (Hybrid-RsA) (UniProt P08069); assay: displacement of 125I-IGF1 from immunocaptured Hybrid-RsA
[2] = molecular target: T1, extracellular domain of human insulin-like growth factor-1 receptor (hIGF-IR) (human, UniProt P08069 31-935); assay: ELISA on coated soluble IGF-IR, cos7 supernatants
T1 construct: extracellular domain; also called hIGF1-R; Human Insulin-Like Growth Factor I soluble Receptor (R & D Systems #391-GR)

[3] = molecular target: T1, extracellular domain of human …; assay: SPR (BIAcore X), antibody captured by anti-Fc on a CM5 chip, hIGF-IR extracellular domain as analyte at 12.5-200 nM, 25°C

IC50 [1]: < 50 nM
Molecule: monoclonal antibody 1H7

binding result [2]: binds
B1: humanized 7C10 VL 2 combined with humanized 7C10 VH 2 (antibody, human IgG1, V domains shown)
VH: QVQLQESGPGLVKPSETLSLTCTVSGYSITGGYLWNWIRQPPGKGLEWIGYISYDGTNNYKPSLKDRVTISRDTSKNQFSLKLSSVTAADTAVYYCARYGRVFFDYWGQGTLVTVSS
VL: DIVMTQSPLSLPVTPGEPASISCRSSQSIVHSNGNTYLQWYLQKPGQSPQLLIYKVSNRLYGVPDRFSGSGSGTDFTLKISRVEAEDVGVYYCFQGSHVPWTFGQGTKVEIK
notes: Human IgG1/kappa, cos7 supernatant; also called 7C10 hum 2 heavy chain with humanized 7C10 VL 2

Kd [3]: 0.86 nM
B2: A2CHM Mab (antibody, V domains shown)
VH: B1 VH with T30S, R72V
VL: B1 VL

binding result [2]: binds
B3: humanized 7C10 VL 2 combined with humanized 7C10 VH 3 (antibody, human IgG1, V domains shown)
VH: B1 VH with T30S, R72V
VL: B1 VL
notes: Human IgG1/kappa, cos7 supernatant; also called 7C10 hum 3 heavy chain with humanized 7C10 VL 2

From patent publication WO2005058967A2 (dated 2005)
